{"source": "patent US11202837B2", "about": "“Biological materials and uses thereof” (Antikor Biopharma Limited, priority 2014, dated 2021)", "molecules": {"B1": {"name": "scFv (TCT)-Auristatin F-C5: scFv (TCT) conjugated with Auristatin-F-C5-NHS (compound 88), 30 equivalents, average DAR 8.5 (conjugate)", "scFv": "SGSGGSGQVQLVQSGAEVKKPGESLKISCKGSGYSFTSYWIAWVRQMPGKGLEYMGLIYPGDSDTKYSPSFQGQVTISVDKSVSTAYLQWSSLKPSDSAVYFCARHDVGYCSSSNCAAWPEYFQHWGQGTLVTVSSGGGGSGGGGSGGGGSQSVLTQPPSVSAAPGQKVTISCSGSSSNIGNNYVSWYQQLPGTAPKLLIYGHTNRPAGVPDRFSGSKSGTSASLAISGFRSEDEADYYCAAWDDSLSGWVFGGGTKLTVLMASMTGGQQMG"}}, "key": {"[1]": {"system": "BT474 human breast carcinoma xenografts", "experiment": "Tumour growth inhibition or eradication in BT474 xenograft model", "assay_type": "in vivo", "details": "free payload treated group", "method": "Mice. […] The animals were fed ad libitum water (reverse osmosis, 1 ppm Cl), and NIH 31 Modified and Irradiated Lab Diet® consisting of 18.0% crude protein, 5.0% crude fat, and 5.0% crude fiber. The mice were housed on irradiated Enrich-o'cobs™ Laboratory Animal Bedding in static microisolators on a 12-hour light cycle at 20-22° C. (68-72° F.) and 40-60% humidity. Charles River Discovery Services North Carolina (CR Discovery Services, who carried out this contracted R&D) specifically complies with the recommendations of the Guide for Care and Use of Laboratory Animals with respect to restraint, husbandry, surgical procedures, feed and fluid regulation, and veterinary care.\nTumor weight may be estimated with the assumption that 1 mg is equivalent to 1 mm^3 of tumor volume."}, "HER2": {"target": "HER2 (Homo sapiens, UniProt P04626)", "experiment": "Biacore SPR binding to immobilised HER2", "details": "compared to unmodified scFv", "summary_of_the_method": "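HER2 amine-coupled on CM5 or CM3 chips, Biacore T200. Free antibody (typically 5-0.6 μg/ml) and conjugates (20-2.5 μg/ml) injected 160 s at 30 μl/min, 900 s dissociation (3600 s at highest concentration); regeneration with 8M MgCl2. Kinetics compared with unmodified scFv.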"}, "[2]": {"experiment": "Concentration reached and storage stability of purified conjugates in buffer", "assay_type": "physicochemical"}, "[3]": {"experiment": "Aggregation by HPLC size-exclusion chromatography", "assay_type": "physicochemical", "details": "purified or analysed conjugate vs unconjugated antibody", "method": "Aggregation can be tested by analytical size-exclusion HPLC measuring the percentage of high molecular weight material compared to the conjugate eluting at a retention time characteristic of a monomeric conjugate.\nTypically, 20 μg of protein was injected for analytical runs and 300 μg for semi-preparative runs."}}, "note": "Where a SMILES comes first, the peptide text is derived from it. [ ]: non-standard residue; d: D form. Dolaproine = CO[C@@H]([C@@H]1CCCN1)[C@@H](C)C(=O)O; Dil = CC[C@H](C)[C@H](NC)[C@@H](CC(=O)O)OC; NMeV = CN[C@H](C(=O)O)C(C)C"}
{"molecule": "CC[C@H](C)[C@@H]([C@@H](CC(=O)N1CCC[C@H]1[C@H](OC)[C@@H](C)C(=O)N[C@@H](Cc1ccccc1)C(=O)O)OC)N(C)C(=O)[C@@H](NC(=O)[C@@H](NC)C(C)C)C(C)C", "note": "[Free MMAF, monomethyl auristatin F, reference compound] (H-[NMeV]V[Dil][Dolaproine]F-OH)", "values": [{"measurement": "tumour growth (in words)", "setting": "[1]", "result": "grew rapidly"}]}
{"molecule": "B1", "values": [{"measurement": "binding function against immobilised HER2 (in words)", "setting": "HER2", "result": "verified"}, {"measurement": "time stable in the buffer", "setting": "[2]; after purification and concentration", "result": "several weeks"}, {"measurement": "concentration to which purified conjugates were concentrated", "setting": "[2]; in buffer after SEC purification", "result": "~600", "unit": "µg/mL"}, {"measurement": "aggregation by HPLC-SEC (in words)", "setting": "[3]", "result": "no aggregation"}]}
